This passage reports amyloid nucleation score results from the supplement of paper PMC12042874.

± gives the uncertainty stated by the source.

This data set can be described thus: amyloid nucleation score (Sup35N fusion, yeast selection) (log enrichment); library NNK1; higher = more nucleation; inactive = no reads after selection. In short, it runs like this: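 Output and input plasmid inserts were sequenced by Illumina after psi-negative yeast carrying Sup35N fused to peptides of 20 random codons had been induced 24 hours with 100 μM copper sulfate and grown 7 days at 30°C on medium lacking adenine and uracil. The nucleation score is the DiMSum log enrichment of output over input reads, centred on the mode score of non-aggregating sequences. Sequences with under 100 input reads were excluded.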
WEIAE came in with an amyloid nucleation score of 0.939 ± 0.19.
The figure for RFCISNARRRFLRPFGSYL is 0.072 ± 1.1.
The figure for VFSCLLHYIFKAMLGYSVCL is -0.155 ± 0.3; for VSFILGSNCWAYKTTPMGFL it is 0.881 ± 0.39; for SQCQFVMVDRNGYGTKLRNY it is -0.24 ± 0.36.
The figure for ALCYWNSTVD is -0.057 ± 0.41.
For VYWTVDIWVFFVTAC, the amyloid nucleation score worked out at 1.49 ± 0.13.
CSFMCLARLVSYQIESLW: the amyloid nucleation score was -0.062 ± 1.2.
In the case of NTDLTNRSDYLYIV, the amyloid nucleation score was -1.78 ± 1.2.
Substance LMYWLLLMEIRYNLKPLNRL returned an amyloid nucleation score of 2.29 ± 0.084.
The figure for NCMAISGITVLNMSWNNLKI is 6.612 ± 0.064; for HSAFSWNYRDSFVEGCSSHG it is 0.018 ± 0.3.
VNKGFHFLILTTIINVDYGG showed an amyloid nucleation score of 4.64 ± 0.07.
The figure for IYNWH is 0.849 ± 0.66; for SEMLSLKIGQGTVTPFNFWM it is -0.09 ± 1.2; for GFTFVLLLSLGLVGWCETVK it is -0.511 ± 0.68.
The figure for LFYTCRVDQGPVWGLLTKRR is 0.344 ± 0.77.
The figure for CLNWVCRRFWVSITHFWAWV is 0.066 ± 0.51; for EGTFLSGEHTFLNLGFSNRG it is 0.019 ± 0.6.
KLYGTRFPQFSRSVNEYC: the amyloid nucleation score amounted to 0.111 ± 0.36.
The entry for NQYLDVGVRKSNAECKVPHE is “inactive”; for VFASGAAGTKFWR it is 0.302 ± 0.27.
The figure for SRLAKLSFKQGNTTVCTKSS is -0.742 ± 0.62.
The figure for SKESKSSEARLLIR is -1.39 ± 1.3; for IYWCMM it is 7.125 ± 0.057; for GKCLIMKQRLALKSFFNFQC it is “inactive”.
In the case of VVLNIR, the amyloid nucleation score is -0.232 ± 0.52.
The substance YCHSVVFV displayed an amyloid nucleation score of 0.352 ± 1.
The figure for YTEETYKLCVWMSDRSIRLN is 0.001 ± 0.85.
The figure for FDANGVCSSITSCM is -0.359 ± 0.53; for NWSEWGSRIHFKCWIEMLLR it is 0.174 ± 0.55.
The figure for RWSPV is 1.47 ± 0.54; for LQSYWRYRVKRFV it is -0.39 ± 0.39.
Consider NMDGLAPISGSFYSRSGNFI, for which the amyloid nucleation score is 0.964 ± 0.61.
For the substance RLYYLGMSGYLRHNPASCVL, the amyloid nucleation score was -1.56 ± 2.7.
For the substance NQTNIMCSPNIICSVSGQSG, the amyloid nucleation score came to 6.743 ± 0.047.
The entry for GGQITYPMDLKVGRLCEDAL is “inactive”; for TSLCCSYWFSSVIGFSGYCG it is 1.89 ± 0.28.
TMVFCRI yielded an amyloid nucleation score of 0.23 ± 0.79.
The figure for GPCGTLSI is -0.541 ± 0.84; for FRTYIFP it is -0.091 ± 0.51.
For YCIASSVGWFVFVIWPLRKS, the amyloid nucleation score worked out at 0.065 ± 0.56.
As for VFVICCKRREAG, the amyloid nucleation score was -0.295 ± 0.34.
The entry for GGYGCDGCLSNCMRLNGVWV is “inactive”.
The figure for CFNLALLRVLAGTKLYSFMG is 0.64 ± 0.35.
As for SGRGWEAYIYCWVRLVRLVW, the amyloid nucleation score was -0.463 ± 0.35.
The figure for CVLPFGLSSG is 0.483 ± 0.48.
The figure for WTCLKQEPLAWRWL is -0.093 ± 0.94.
The figure for RIWPRSMYRPSSGCVET is -0.281 ± 0.52; for CFVVAWCKTITV it is 1.02 ± 0.66; for IPDNVVF it is -1.27 ± 1.4.
In the case of IKKEIRSVFGLSGTSVKGNN, the amyloid nucleation score is -0.118 ± 0.74.
The figure for KNVNAVR is 0.173 ± 0.79.
The figure for IIQSSTGLWFIIRKVDATYV is 0.812 ± 0.28.
The figure for VASYFGLVRNSNLDLYLHCR is -0.131 ± 0.23; for WSVVLDFTVDLVHFGPVGRC it is 0.242 ± 0.36; for NIITVGNGSILMMVWSSEVN it is 5.63 ± 0.08.
SAVVAVPVPYRDHQCPLPRV showed an amyloid nucleation score of 1.13 ± 0.52.
